In the supplement of paper PMC10065799, “High-throughput profiling of sequence recognition by tyrosine kinases and SH2 domains using bacterial peptide display” (eLife, 2023):

Columns and labels:
AncSZ = experiment: phosphorylation enrichment, bacterial display (enrichment ratio); higher = better substrate or ligand; peptides without Tyr show the background
EPHB1 = EPHB1 (UniProt P54762); experiment: as above
EPHB2 = EPHB2 (UniProt P29323); experiment: as above
FGFR1 = FGFR1 (UniProt P11362); experiment: as above
FGFR3 = FGFR3 (UniProt P22607); experiment: as above
Fer (mouse) = experiment: as above
Fes = Fes (UniProt P07332); experiment: as above
Fyn = Fyn (UniProt P06241); experiment: as above
Hck = Hck (UniProt P08631); experiment: as above
Jak2 = Jak2 (UniProt O60674); experiment: as above
MERTK = MERTK (UniProt Q12866); experiment: as above
c-Abl (mouse) = experiment: as above
c-Src = experiment: as above
Grb2 SH2 = Grb2 SH2 (UniProt P62993); experiment: SH2 binding enrichment of the phosphorylated peptide, bacterial display (enrichment ratio); higher = better substrate or ligand; peptides without Tyr show the background
SHP2-C SH2 = experiment: as above
c-Src SH2 = experiment: as above
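Wherever SH2 binding enrichment of the phosphorylated peptide, bacterial display is given: peptide library displayed on the E. coli surface as eCPX fusions, selected cells deep-sequenced, score is each peptide's frequency after selection divided by its frequency in the input.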
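Wherever phosphorylation enrichment, bacterial display is given: 11-residue human phosphosite peptides and single-mutation variants displayed on the E. coli surface, counted by deep sequencing, each peptide's frequency after selection divided by its frequency in the unselected input library; frequency after pTyr selection over input frequency; kinase dosed for 20-30% of maximal phosphorylation in three min.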

FGFR3, sequence (P22607 whole entry, looked up): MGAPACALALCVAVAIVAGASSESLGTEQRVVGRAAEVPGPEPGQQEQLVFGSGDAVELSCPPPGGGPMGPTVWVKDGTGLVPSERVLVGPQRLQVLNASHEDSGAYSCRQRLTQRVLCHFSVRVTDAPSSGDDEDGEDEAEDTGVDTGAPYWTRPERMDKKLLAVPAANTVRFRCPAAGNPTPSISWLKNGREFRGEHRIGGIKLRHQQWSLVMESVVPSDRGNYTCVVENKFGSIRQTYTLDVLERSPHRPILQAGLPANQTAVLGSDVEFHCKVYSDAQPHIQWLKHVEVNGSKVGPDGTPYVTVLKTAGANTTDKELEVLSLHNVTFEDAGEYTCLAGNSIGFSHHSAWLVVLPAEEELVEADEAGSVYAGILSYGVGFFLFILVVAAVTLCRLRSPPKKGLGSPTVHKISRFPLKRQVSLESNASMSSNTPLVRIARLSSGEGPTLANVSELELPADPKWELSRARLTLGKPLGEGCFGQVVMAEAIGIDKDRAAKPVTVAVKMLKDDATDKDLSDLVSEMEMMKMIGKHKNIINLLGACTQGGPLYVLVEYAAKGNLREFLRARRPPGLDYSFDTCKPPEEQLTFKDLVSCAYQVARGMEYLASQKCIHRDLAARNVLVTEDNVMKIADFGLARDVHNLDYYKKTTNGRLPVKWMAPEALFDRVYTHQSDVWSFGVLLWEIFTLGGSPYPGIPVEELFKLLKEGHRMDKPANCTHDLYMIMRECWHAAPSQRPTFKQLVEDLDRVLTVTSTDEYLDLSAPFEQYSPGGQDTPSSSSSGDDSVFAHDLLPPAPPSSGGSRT
Fyn, sequence (P06241 whole entry, looked up): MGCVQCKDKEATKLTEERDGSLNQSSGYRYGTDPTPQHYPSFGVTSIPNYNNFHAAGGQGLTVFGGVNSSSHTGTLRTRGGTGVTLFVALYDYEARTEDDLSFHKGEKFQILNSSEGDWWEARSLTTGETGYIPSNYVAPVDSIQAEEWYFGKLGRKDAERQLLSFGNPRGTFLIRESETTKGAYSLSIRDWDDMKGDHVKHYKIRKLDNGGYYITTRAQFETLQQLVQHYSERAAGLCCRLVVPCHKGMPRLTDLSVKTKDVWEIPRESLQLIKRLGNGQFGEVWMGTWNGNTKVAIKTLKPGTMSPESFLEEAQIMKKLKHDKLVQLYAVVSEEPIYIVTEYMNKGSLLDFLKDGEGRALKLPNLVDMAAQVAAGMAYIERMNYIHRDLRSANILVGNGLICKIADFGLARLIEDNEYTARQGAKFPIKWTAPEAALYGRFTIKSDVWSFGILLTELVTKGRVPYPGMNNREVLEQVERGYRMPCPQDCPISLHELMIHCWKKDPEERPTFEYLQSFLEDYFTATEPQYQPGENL
Jak2, sequence (O60674 whole entry, looked up): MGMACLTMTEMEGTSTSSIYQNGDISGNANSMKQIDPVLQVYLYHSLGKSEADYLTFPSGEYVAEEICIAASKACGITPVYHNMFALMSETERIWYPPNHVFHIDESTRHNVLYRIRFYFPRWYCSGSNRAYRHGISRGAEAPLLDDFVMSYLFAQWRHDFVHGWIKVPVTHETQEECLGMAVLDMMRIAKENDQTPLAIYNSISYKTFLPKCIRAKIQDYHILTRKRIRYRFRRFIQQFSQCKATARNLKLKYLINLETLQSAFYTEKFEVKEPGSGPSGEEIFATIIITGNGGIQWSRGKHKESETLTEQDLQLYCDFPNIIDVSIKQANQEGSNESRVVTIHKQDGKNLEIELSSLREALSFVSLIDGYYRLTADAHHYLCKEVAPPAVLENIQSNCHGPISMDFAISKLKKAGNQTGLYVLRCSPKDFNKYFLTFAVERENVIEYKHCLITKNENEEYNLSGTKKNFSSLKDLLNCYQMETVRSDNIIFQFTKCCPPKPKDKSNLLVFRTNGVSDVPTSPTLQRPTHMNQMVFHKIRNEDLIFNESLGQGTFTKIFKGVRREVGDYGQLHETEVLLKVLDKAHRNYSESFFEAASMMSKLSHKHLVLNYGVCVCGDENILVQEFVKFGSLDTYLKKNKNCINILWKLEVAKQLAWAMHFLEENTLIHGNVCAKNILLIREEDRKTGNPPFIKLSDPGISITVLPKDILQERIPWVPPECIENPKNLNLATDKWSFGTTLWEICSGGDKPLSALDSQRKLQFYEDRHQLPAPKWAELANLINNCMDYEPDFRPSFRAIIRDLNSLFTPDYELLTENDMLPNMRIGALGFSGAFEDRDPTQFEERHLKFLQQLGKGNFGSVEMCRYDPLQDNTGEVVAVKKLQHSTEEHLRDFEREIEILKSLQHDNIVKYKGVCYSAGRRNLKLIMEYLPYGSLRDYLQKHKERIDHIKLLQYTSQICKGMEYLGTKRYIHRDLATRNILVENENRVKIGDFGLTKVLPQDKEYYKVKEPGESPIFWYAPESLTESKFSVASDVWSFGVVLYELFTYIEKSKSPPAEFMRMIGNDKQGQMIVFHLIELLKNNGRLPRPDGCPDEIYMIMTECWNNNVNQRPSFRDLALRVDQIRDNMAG
MERTK, sequence (Q12866 whole entry, looked up): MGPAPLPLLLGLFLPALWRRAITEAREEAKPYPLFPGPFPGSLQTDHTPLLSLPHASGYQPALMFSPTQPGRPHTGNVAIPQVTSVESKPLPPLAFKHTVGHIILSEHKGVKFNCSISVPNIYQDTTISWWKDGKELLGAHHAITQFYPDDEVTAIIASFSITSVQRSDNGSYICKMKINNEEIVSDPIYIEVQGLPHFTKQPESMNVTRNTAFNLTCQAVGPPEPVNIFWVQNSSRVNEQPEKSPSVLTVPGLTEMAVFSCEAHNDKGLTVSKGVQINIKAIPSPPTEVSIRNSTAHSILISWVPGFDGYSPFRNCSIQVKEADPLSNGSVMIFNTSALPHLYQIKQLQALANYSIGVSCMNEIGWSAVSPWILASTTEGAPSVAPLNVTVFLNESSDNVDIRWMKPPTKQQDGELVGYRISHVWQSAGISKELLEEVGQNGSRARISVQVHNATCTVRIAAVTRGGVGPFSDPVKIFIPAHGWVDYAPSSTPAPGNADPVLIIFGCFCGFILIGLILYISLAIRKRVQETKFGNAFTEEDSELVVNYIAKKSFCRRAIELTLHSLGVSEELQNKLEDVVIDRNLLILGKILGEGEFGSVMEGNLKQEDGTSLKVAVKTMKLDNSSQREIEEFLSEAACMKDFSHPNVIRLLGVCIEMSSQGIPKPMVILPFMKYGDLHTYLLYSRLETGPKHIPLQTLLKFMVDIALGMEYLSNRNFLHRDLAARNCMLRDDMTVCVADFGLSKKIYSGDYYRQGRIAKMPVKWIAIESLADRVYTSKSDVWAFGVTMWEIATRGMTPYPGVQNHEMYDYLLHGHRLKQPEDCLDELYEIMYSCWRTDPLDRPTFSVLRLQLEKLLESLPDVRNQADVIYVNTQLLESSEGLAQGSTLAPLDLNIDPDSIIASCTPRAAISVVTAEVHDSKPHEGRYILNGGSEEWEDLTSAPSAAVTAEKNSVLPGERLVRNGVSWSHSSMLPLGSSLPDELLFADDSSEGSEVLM
Grb2 SH2, sequence (P62993 whole entry, looked up): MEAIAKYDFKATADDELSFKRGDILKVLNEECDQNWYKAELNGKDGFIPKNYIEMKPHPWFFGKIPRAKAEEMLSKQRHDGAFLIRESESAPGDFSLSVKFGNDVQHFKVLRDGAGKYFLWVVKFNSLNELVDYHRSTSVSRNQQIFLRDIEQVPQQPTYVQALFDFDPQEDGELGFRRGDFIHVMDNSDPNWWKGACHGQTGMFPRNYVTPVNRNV
Hck, sequence (P08631 whole entry, looked up): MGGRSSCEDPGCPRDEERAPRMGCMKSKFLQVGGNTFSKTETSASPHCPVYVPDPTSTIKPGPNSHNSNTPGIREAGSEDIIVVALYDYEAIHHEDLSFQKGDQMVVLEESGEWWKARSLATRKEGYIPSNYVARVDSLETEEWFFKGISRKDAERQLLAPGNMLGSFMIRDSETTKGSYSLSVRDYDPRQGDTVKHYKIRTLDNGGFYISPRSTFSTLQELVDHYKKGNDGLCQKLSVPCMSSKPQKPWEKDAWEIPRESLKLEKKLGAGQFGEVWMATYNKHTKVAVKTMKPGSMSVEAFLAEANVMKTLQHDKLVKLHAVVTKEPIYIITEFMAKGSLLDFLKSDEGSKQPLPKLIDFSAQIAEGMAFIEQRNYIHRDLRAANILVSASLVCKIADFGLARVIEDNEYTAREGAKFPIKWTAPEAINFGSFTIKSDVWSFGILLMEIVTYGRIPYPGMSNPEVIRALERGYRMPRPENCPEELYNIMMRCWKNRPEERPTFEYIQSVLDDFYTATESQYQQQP
Fes, sequence (P07332 whole entry, looked up): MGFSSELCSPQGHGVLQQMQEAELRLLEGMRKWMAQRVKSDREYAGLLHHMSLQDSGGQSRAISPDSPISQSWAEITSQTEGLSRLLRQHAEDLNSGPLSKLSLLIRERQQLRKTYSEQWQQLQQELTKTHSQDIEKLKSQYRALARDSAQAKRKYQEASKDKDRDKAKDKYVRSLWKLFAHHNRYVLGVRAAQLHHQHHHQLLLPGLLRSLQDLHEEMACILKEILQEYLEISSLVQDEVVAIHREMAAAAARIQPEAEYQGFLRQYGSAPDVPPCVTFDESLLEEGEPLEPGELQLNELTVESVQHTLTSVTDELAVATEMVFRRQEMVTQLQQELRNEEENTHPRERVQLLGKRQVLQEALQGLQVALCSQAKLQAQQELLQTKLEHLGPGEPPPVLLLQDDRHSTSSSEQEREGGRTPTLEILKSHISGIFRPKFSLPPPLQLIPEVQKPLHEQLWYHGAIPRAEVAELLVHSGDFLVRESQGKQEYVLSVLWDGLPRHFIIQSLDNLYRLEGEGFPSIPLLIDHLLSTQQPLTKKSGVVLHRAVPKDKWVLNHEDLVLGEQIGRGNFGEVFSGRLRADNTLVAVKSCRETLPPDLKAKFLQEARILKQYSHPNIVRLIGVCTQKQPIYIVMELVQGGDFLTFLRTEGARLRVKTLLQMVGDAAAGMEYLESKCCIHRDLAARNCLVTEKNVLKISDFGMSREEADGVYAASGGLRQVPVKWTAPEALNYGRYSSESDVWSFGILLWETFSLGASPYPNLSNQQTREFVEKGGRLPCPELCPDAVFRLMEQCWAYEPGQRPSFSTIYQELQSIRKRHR

Row | Sequence | phosphorylation enrichment (AncSZ) | phosphorylation enrichment (EPHB1) | phosphorylation enrichment (EPHB2) | phosphorylation enrichment (FGFR1) | phosphorylation enrichment (FGFR3) | phosphorylation enrichment (Fer (mouse)) | phosphorylation enrichment (Fes) | phosphorylation enrichment (Fyn) | phosphorylation enrichment (Hck) | phosphorylation enrichment (Jak2) | phosphorylation enrichment (MERTK) | phosphorylation enrichment (c-Abl (mouse)) | phosphorylation enrichment (c-Src) | SH2 binding enrichment (Grb2 SH2) | SH2 binding enrichment (SHP2-C SH2) | SH2 binding enrichment (c-Src SH2)
1 | KKRSVYIKVLF [CC2D2A_Y683_L684I] | 0.99 | 0.411 | 0.396 | 0.457 | 0.515 | 0.451 | 0.954 | 0.392 | 0.363 | 0.798 | 0.335 | 0.644 | 0.304 | 1.1 | 0.646 | 0.548
2 | RRIHSYRGHVW [VHL_Y112_L116V] | 1.56 | 0.733 | 0.486 | 0.899 | 0.965 | 0.559 | 0.99 | 0.861 | 0.736 | 1.35 | 1.12 | 0.848 | 1.04 | 0.578 | 0.25 | 0.396
3 | HLQDEYDFKCK [STAT1_Y170_D165H] | 1.33 | 0.621 | 0.585 | 0.581 | 0.924 | 0.471 | 1.59 | 0.631 | 0.589 | 1.5 | 0.884 | 0.776 | 0.871 | 0.797 | 0.48 | 0.423
4 | GETEQYVGGGG [FAT4_Y4980_A4977T] | 0.889 | 0.526 | 0.475 | 0.437 | 0.599 | 0.436 | 0.922 | 0.475 | 0.467 | 0.66 | 0.414 | 0.624 | 0.419 | 0.798 | 0.553 | 0.506
5 | KRPAVYIDEEA [EPM2A_Y304] | 1.07 | 0.547 | 0.514 | 0.598 | 0.704 | 0.548 | 1.07 | 0.567 | 0.485 | 0.901 | 0.518 | 0.746 | 0.542 | 0.949 | 0.709 | 0.711
6 | SVVVPYEPPED [TP53_Y220_V225D] | 1.31 | 0.607 | 0.641 | 0.545 | 0.759 | 0.549 | 1.4 | 0.479 | 0.544 | 1.15 | 0.441 | 0.772 | 0.491 | 0.874 | 0.778 | 0.769
7 | SFGESYDNSKS [MAN1B1_Y60_N59S] | 0.813 | 0.474 | 0.508 | 0.493 | 0.595 | 0.433 | 0.953 | 0.466 | 0.482 | 0.939 | 0.502 | 0.747 | 0.508 | 0.928 | 0.568 | 0.437
8 | GGYNNYGYGSD [HNRNPH3_Y159_N163S] | 0.71 | 1.48 | 2.4 | 0.406 | 0.467 | 0.421 | 0.697 | 0.379 | 0.475 | 0.611 | 0.479 | 0.608 | 0.38 | 0.808 | 0.575 | 0.951
9 | RFLRGYRQHAY [HLA-A_Y137_D140H] | 1.1 | 0.787 | 0.879 | 0.623 | 0.849 | 1.02 | 1.04 | 0.654 | 1.06 | 0.979 | 1.33 | 1.31 | 1.11 | 0.539 | 0.57 | 0.424
10 | AGTIPYHAHLD [ASS1_Y291_L290P] | 0.507 | 0.395 | 0.369 | 0.458 | 0.435 | 0.357 | 0.645 | 0.415 | 0.484 | 0.447 | 0.456 | 0.474 | 0.377 | 0.838 | 0.772 | 0.554
11 | STSFDYCRVPM [BST2_Y8_YF] | 2.98 | 9.03 | 5.96 | 5.41 | 3.97 | 0.827 | 1.32 | 0.828 | 1.57 | 2.03 | 0.903 | 0.932 | 0.957 | 0.675 | 0.571 | 0.558
12 | KRLAVYIDEEA [EPM2A_Y304_P301L] | 1.11 | 0.665 | 0.615 | 0.514 | 0.837 | 0.524 | 1.14 | 0.601 | 0.496 | 1.23 | 0.484 | 0.781 | 0.578 | 0.85 | 0.486 | 0.507
13 | FSGIFYKPESL [L2HGDH_Y103_H98Y_YF] | 0.968 | 0.5 | 0.5 | 0.436 | 0.673 | 0.471 | 1.03 | 0.438 | 0.393 | 0.935 | 0.431 | 0.81 | 0.611 | 1.17 | 1.27 | 0.56
14 | QRCYVYYYSYL [PTEN_Y176_R173C] | 1.86 | 1.18 | 1.45 | 2.09 | 2.56 | 1.22 | 2.08 | 1.44 | 1.35 | 4.07 | 2.61 | 1.53 | 3.53 | 0.927 | 0.542 | 0.587
15 | TPIFPYLLPKS [PLD2_Y580_T577I_YF] | 0.632 | 0.467 | 0.463 | 0.825 | 1.57 | 0.551 | 0.685 | 0.799 | 0.64 | 0.723 | 0.538 | 0.7 | 0.489 | 0.877 | 0.451 | 0.393
16 | GANFEYIIAEK [ECHS1_Y35] | 0.911 | 0.501 | 0.455 | 0.523 | 0.594 | 0.406 | 0.862 | 0.479 | 0.553 | 0.883 | 0.513 | 0.544 | 0.48 | 0.576 | 0.547 | 0.447
17 | RGGDSYGGPPR [RBMX_Y190_R187G] | 0.498 | 0.399 | 0.5 | 0.454 | 0.58 | 0.441 | 0.848 | 0.524 | 0.656 | 0.43 | 0.586 | 0.735 | 0.592 | 1.96 | 0.798 | 0.75

Row | Sequence | phosphorylation enrichment (AncSZ) | phosphorylation enrichment (EPHB1) | phosphorylation enrichment (EPHB2) | phosphorylation enrichment (FGFR1) | phosphorylation enrichment (FGFR3) | phosphorylation enrichment (Fer (mouse)) | phosphorylation enrichment (Fes) | phosphorylation enrichment (Fyn) | phosphorylation enrichment (Hck) | phosphorylation enrichment (Jak2) | phosphorylation enrichment (MERTK) | phosphorylation enrichment (c-Abl (mouse)) | phosphorylation enrichment (c-Src) | SH2 binding enrichment (Grb2 SH2) | SH2 binding enrichment (SHP2-C SH2) | SH2 binding enrichment (c-Src SH2)
18 | LQEQNYPAVDS [FAM114A1_Y115_L116P] | 2.01 | 1.37 | 1.26 | 0.988 | 1.54 | 0.878 | 1.86 | 0.92 | 0.739 | 1.54 | 0.81 | 1.13 | 0.699 | 0.698 | 0.508 | 0.655
19 | PQDSAYHSGIQ [FLG_Y3940_S3935P] | 0.651 | 0.652 | 0.49 | 0.534 | 0.522 | 0.419 | 0.755 | 0.459 | 0.486 | 0.598 | 0.445 | 1.69 | 0.553 | 0.787 | 0.613 | 0.437
20 | QMVGMYASSYM [AVPR2_Y124] | 1.27 | 1.21 | 1.09 | 0.611 | 0.783 | 1.07 | 1.07 | 1.11 | 1.3 | 0.659 | 2.74 | 0.921 | 1.45 | 0.806 | 0.946 | 1.23
21 | SVTCAYSPALN [TP53_Y126_T125A] | 1.26 | 0.726 | 0.577 | 0.557 | 0.757 | 0.64 | 1.2 | 0.616 | 0.608 | 0.98 | 0.525 | 0.79 | 0.583 | 0.802 | 0.66 | 0.457
22 | ITNLLYHVVGG [GBA_Y412_W417G] | 1.18 | 5.68 | 3.36 | 6.43 | 5.48 | 1.32 | 1.12 | 5.17 | 5.76 | 2.67 | 7.37 | 1.12 | 3.81 | 1.07 | 1.12 | 0.953
23 | REVPVYTFSEP [FAM120B_Y368_D370Y_YF] | 1.83 | 1.9 | 1.06 | 1.14 | 1.33 | 11.1 | 1.54 | 11.5 | 4.36 | 1.1 | 3.58 | 1.72 | 9.04 | 1.16 | 0.8 | 0.496
24 | SEELHYYVQNH [UQCRC2_Y207_F208Y] | 2.04 | 0.89 | 0.788 | 3.68 | 4.09 | 0.954 | 1.62 | 0.633 | 0.732 | 1.68 | 2.86 | 2.09 | 1.48 | 0.799 | 0.451 | 0.723
25 | IENKPYGMSDP [RET_Y1062_L1061P] | 0.761 | 0.55 | 0.508 | 0.504 | 0.599 | 0.483 | 0.861 | 0.41 | 0.458 | 0.869 | 0.41 | 0.549 | 0.414 | 0.702 | 0.648 | 0.401
26 | GGGGSYNNFGN [HNRNPA1_Y312_D314N] | 0.545 | 0.379 | 0.416 | 0.362 | 0.403 | 0.378 | 0.564 | 0.388 | 0.435 | 0.463 | 0.308 | 0.335 | 0.325 | 0.805 | 0.587 | 0.43
27 | NNIDFYKKTTN [FGFR2_Y657_YF] | 0.637 | 0.639 | 0.397 | 0.338 | 0.467 | 0.388 | 0.695 | 0.393 | 0.435 | 0.722 | 0.364 | 0.498 | 0.422 | 0.729 | 0.45 | 0.515
28 | SRFQFYFQQKG [CHKB_Y381] | 1.63 | 0.938 | 0.612 | 0.579 | 1.02 | 0.597 | 1.56 | 0.48 | 0.551 | 1.47 | 0.369 | 0.99 | 0.379 | 0.692 | 0.728 | 0.473
29 | VDSAHYKLLET [DTX3L_Y385] | 0.665 | 0.355 | 0.574 | 0.485 | 0.657 | 0.427 | 0.722 | 0.485 | 0.543 | 0.517 | 0.419 | 0.466 | 0.401 | 0.793 | 0.67 | 0.517
30 | TDLAYYLVREG [ASL_Y376_K380E] | 1.54 | 0.578 | 0.706 | 9.61 | 7.06 | 0.466 | 0.905 | 0.734 | 0.955 | 3.04 | 1.34 | 0.579 | 1.67 | 0.751 | 2.07 | 1.51
31 | AYRRGYFDEEM [PLEC_Y2971] | 1.13 | 0.469 | 0.377 | 0.477 | 0.5 | 0.389 | 0.906 | 0.442 | 0.397 | 0.849 | 0.412 | 0.54 | 0.371 | 0.573 | 0.91 | 0.463
32 | ELTAKYLNYYR [P3H4_Y181_Q186R] | 0.639 | 0.606 | 0.512 | 0.498 | 0.541 | 0.392 | 0.748 | 0.369 | 0.419 | 0.616 | 0.496 | 0.498 | 0.374 | 2.44 | 0.948 | 0.666
33 | TLQSMSGCDVG [HLA-B_Y123_Y123S] | 0.677 | 0.488 | 0.601 | 0.48 | 0.932 | 0.499 | 0.791 | 0.42 | 0.482 | 1.38 | 0.421 | 0.536 | 0.406 | 0.836 | 0.488 | 0.491
